Data published in patent US8124424B2, “Single molecule-format bioluminescent probe” (National Institute of Advanced Industrial Science and …, priority 2007, dated 2012).
Blank lines part the entries; values can stand above or below the molecule they belong to.

How the values were obtained:
AR LBD [1] = molecular target: T1, AR LBD (Homo sapiens, UniProt P10275); assay: Inhibitory effects of androgen antagonists on DHT-induced luminescence, HeLa cells carrying pAR-NC and pTK-RLuc; type: cell-based; design: The cDNA-encoding AR LBD (672-910 AA) was modified by PCR; expressed in transfected cells; host or cells: HeLa; settings: 5×10^−4 M antagonist 20 min, then 10^−5 M DHT 20 min, FIG. 8
T1 sequence (P10275 672-910): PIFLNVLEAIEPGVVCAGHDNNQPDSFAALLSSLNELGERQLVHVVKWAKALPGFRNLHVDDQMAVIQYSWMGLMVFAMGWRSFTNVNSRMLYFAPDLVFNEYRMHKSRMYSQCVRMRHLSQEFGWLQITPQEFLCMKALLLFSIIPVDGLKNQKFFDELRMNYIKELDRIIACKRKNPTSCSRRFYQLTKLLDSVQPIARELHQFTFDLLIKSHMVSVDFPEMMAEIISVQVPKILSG
Description: HeLa cells were transfected with pAR-NC and pTK-RLuc, and extensively incubated for 16 h. […] The luminescence intensities of each well were determined with a Dual-luciferase assay kit (Promega).

AR LBD [2] = assay: Comparison of the DHT-induced luminescence of probes pAR-CN, pAR-NC, pAR-mut in HeLa cells; type: cell-based, human; settings: 10^−5 M DHT stimulation, FIG. 3
Description: Cervical carcinoma-derived HeLa cells were sub-cultured in 12-well plates in Dulbecco's modified eagle's medium (DMEM; Sigma) supplemented with 10% steroid-free fetal bovine serum (FBS) and 1% penicillin-streptmycin (P/S) at 37° C. in a 5% CO2 incubator. HeLa cells in 12-well plates were transfected with pAR-NC, pAR-CN, or pAR-mut using a transfection reagent, TransIT-LT1 (Minis), which guarantees about 8% transfection efficiency to HeLa cells when incubated for 24 h. The cells were incubated for 12 h and then used for the following experiments.
HeLa cells in 12-well plates were transfected with the plasmids and incubated for 16 h. […] The recovered enzyme activities by ligands were estimated with a luminescence substrate kit, Bright Glo (Promega) or Dual-luciferase assay kit (Promega), according to the manufacturer's manuals. […] After a 3 min incubation at 37° C., the luminescence intensities from the cell lysates were recorded with a luminometer (Minilumat LB9506; Berthold). The protein amounts in the cell lysates were subsequently determined using a Bradford reagent for a normalization of the luminescence intensities. In specific, the firefly luminescence, which was normalized against the determined protein amount, was expressed as “RLU/protein (Bright Glo)”. The unit means the firefly luminescence intensity from the 1 μg of cell lysate.

AR LBD [3] = molecular target: T1, AR LBD; assay: Androgenic activity of ligands with pSimbe (CBLuc) probes in MCF-7 cells (dose-response, time-course, repetitive measurement, ligand panel); type: cell-based; settings: two stimulations with 10^−5 M DHT for 20 minutes with medium replacement, FIG. 21
Description: As controls, vehicle #1 (0.1% DMSO) and vehicle #2 (0.02M phosphoric buffer saline (PBS)) were tested.

AR LBD [4] = molecular target: T1, AR LBD; assay: Ligand selection of pSimbe-LXA probe in four cell lines (MCF-7, CHO, HeLa, NIH 3T3); type: cell-based; design: The cDNA-encoding AR LBD (672-910 AA) was modified by PCR; expressed in transfected cells; host or cells: HeLa; settings: 10^−5 M E2, T, DHT, 20 minutes, FIG. 16
[5] = molecular target: T2, androgen receptor ligand binding domain (AR LBD; 672-910 AA) (human, UniProt P10275 672-910); assay: cell-based or functional assay
T2 sequence (looked up): T1 sequence (P10275 672-910)

Molecule: CC12CC1(C)C(=O)N(c1cc(Cl)cc(Cl)c1)C2=O (centres unmarked) [procymidone]
percentage inhibition of the DHT-induced luminescence (AR LBD [1]): 68%

Molecule: pAR-mut: plasmid/probe with an alanine mutant (AQNLF) of the FQNLF motif (RGAAQNLFQSV)
luminescence intensities of probe-carrying cells compared among the three probes (AR LBD [2]): four times weaker luminescence intensities than the cells carrying pAR-NC

Molecule: pSimbe-LXA: CBLuc probe with AR LBD and reverse sequence of LXXLL motif from Xenopus TIF2 (SSDQLLRHLIKHK)
reversibility of luminescence on repeated DHT stimulation (AR LBD [3]): reversible recovery in the luminescence intensities
luminescence intensity versus the background in cell lines (AR LBD [4]): marked increase in the luminescence intensity versus the background

t1/2 of the rise in luminescence after 10^-6 M DHT, HeLa cells carrying pAR-NC [5]: 4.5 min
Molecule: RGAFQNLFQSV [AR N-terminal motif peptide (11 AA; 20RGAFQNLFQSV30), 'FQNLF' motif of human AR NTD]
